From patent publication US9266939B2, “Compositions comprising natriuretic peptides and methods of use thereof” (Alexion Pharmaceuticals, Inc., priority 2010, dated 2016)
Peptide text beside a SMILES is read from it.

Key:
[1] = molecular target: neutral endopeptidase (NEP) (Homo sapiens, UniProt P08473)
NPR-B [2] = molecular target: T1, NPR-B (Homo sapiens, UniProt P20594); assay: Whole cell guanylyl cyclase (cGMP) assay, NPR-B; assay type: cell-based; design: expressed in transfected cells; details: for potency compared with CNP22: CNP22 position 17 point mutants, NPR-B whole cell cGMP assay (FIG. 30); for efficacy relative to CNP / potency relative to CNP (times less than that of CNP): NPR-B whole cell assay (FIG. 21C)
T1 sequence (P20594 23-1047): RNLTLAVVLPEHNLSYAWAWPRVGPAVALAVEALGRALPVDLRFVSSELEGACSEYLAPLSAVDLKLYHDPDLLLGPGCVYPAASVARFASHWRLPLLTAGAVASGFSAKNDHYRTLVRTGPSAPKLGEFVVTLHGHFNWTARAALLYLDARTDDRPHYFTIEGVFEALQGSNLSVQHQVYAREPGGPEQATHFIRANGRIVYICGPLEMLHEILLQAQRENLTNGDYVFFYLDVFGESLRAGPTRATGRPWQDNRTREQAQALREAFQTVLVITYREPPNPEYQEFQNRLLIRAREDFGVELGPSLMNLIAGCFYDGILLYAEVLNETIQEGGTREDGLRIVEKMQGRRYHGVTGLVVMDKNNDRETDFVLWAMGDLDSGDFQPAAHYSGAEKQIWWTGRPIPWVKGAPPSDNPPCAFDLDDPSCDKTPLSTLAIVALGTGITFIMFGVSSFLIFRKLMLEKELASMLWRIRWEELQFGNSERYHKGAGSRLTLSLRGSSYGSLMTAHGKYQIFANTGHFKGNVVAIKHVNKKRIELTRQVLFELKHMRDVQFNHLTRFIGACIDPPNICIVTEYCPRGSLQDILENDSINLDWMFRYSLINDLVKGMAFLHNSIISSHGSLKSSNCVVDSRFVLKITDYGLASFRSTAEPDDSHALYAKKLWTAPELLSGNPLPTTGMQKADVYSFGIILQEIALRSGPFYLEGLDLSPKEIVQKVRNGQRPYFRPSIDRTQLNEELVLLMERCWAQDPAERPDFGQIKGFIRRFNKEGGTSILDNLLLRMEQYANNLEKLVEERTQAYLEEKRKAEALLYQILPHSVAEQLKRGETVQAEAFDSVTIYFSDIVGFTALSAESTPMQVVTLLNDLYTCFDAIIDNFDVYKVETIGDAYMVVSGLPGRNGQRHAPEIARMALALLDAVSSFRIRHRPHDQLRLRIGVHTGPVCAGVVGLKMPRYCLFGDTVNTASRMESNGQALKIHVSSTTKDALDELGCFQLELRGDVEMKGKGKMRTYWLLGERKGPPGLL
Description: HEK293S cells in a semi-confluent 75 cm2 flask are transfected with 30 μg of plasmid DNA coding for the appropriate receptor, e.g., human NPR-B or NPR-A, using Lipofectamine-2000CD. Alternatively, a stable polyclonal HEK293 S cell line expressing either human NPR-B or NPR-A was used. 24 hours after transfection, cells are trypsinized and plated into 48-well plates at 1×10^5 cells/well. Guanylyl cyclase assay is carried out 24 hours post-plating. Cells are first incubated for 30 minutes at 37° C. with serum-free DMEM medium. Then, they are incubated in triplicate with or without increasing concentrations of reference or test proteins in serum-free DMEM supplemented with 1 mM IBMX and 0.5% BSA, at 37° C. for 30 minutes to one hour. CNP serves as a suitable reference for NPR-B, while ANP is a suitable reference for NPR-A. Finally, cells are washed with ice-cold PBS and solubilized in lysis buffer from Catchpoint cGMP kit (Molecular devices). Concentrations of cGMP in lysate are determined using the Catchpoint cGMP kit. Dose-response curves are analysed with GraphPad Prism 5 software using non-linear regression with four-parameter logistic equation.

NPR-B [3] = molecular target: T1, NPR-B; assay: Membrane guanylyl cyclase (cGMP) assay, NPR-B; assay type: biochemical
[4] = first NPR-B membrane assay (FIG. 21A)
[5] = second NPR-B membrane assay (FIG. 21B)

Sequence of neutral endopeptidase (NEP) (P08473 whole entry): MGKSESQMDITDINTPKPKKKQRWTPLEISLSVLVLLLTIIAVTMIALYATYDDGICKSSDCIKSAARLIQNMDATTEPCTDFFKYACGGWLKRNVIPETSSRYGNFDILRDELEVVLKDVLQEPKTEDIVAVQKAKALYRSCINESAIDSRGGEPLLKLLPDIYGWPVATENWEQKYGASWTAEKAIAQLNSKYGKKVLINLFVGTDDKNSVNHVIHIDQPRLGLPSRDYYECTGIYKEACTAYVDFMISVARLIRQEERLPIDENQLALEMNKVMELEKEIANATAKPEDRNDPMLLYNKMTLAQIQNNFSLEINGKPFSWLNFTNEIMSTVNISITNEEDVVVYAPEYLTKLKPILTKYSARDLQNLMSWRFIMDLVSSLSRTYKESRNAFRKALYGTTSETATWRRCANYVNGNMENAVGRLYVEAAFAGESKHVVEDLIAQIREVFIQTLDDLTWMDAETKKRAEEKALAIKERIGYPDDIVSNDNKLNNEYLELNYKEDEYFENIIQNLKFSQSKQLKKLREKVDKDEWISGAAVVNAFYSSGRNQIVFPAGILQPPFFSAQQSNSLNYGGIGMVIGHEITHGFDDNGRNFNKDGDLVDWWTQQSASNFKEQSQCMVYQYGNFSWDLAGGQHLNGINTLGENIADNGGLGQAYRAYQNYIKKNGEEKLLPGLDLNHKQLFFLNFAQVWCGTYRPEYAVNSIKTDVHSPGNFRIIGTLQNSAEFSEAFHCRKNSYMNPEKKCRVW

For `CC[C@H](C)[C@@H]1NC(=O)[C@H](CCCNC(=N)N)NC(=O)[C@H](CC(=O)O)NC(=O)[C@H](CC(C)C)NC(=O)[C@H](CCCCN)NC(=O)[C@H](CC(C)C)NC(=O)CNC(=O)[C@H](Cc2ccccc2)NC(=O)[C@@H](NC(=O)CNC(=O)[C@H](CCCCN)NC(=O)[C@H](CO)NC(=O)[C@H](CC(C)C)NC(=O)CN)CSSC[C@@H](C(=O)NCC(=O)N[C@@H](CO)C(=O)N[C@@H](CC(C)C)C(=O)N[C@@H](CCCNC(=N)N)C(=O)N[C@@H](CC(=O)O)C(=O)N2CCC[C@H]2C(=O)N[C@@H](CCCNC(=N)N)C(=O)N2CCC[C@H]2C(=O)N[C@@H](CC(N)=O)C(=O)N[C@@H](C)C(=O)N2CCC[C@H]2C(=O)N[C@@H](CO)C(=O)N[C@H](C(=O)N[C@@H](CO)C(=O)N[C@@H](C)C(=O)O)[C@@H](C)O)NC(=O)CNC(=O)[C@H](CC(C)C)NC(=O)CNC(=O)[C@H](CO)NC(=O)[C@H](CCSC)NC(=O)[C@H](CO)NC(=O)CNC1=O` [CDNP-G1] (HELM PEPTIDE1{G.L.S.K.G.C.F.G.L.K.L.D.R.I.G.S.M.S.G.L.G.C.G.S.L.R.D.P.R.P.N.A.P.S.T.S.A}$PEPTIDE1,PEPTIDE1,6:R3-22:R3$$$V2.0), the “sensitivity to NEP degradation” value [1] was “comparable NEP sensitivity”.

For `CC[C@H](C)[C@@H]1NC(=O)[C@H](CCCNC(=N)N)NC(=O)[C@H](CC(=O)O)NC(=O)[C@H](CC(C)C)NC(=O)[C@H](CCCCN)NC(=O)[C@H](CC(C)C)NC(=O)CNC(=O)[C@H](Cc2ccccc2)NC(=O)[C@@H](NC(=O)CNC(=O)[C@H](CCCCN)NC(=O)[C@H](CO)NC(=O)[C@H](CC(C)C)NC(=O)CN)CSSC[C@@H](C(=O)N[C@@H](Cc2c[nH]cn2)C(=O)N[C@@H](CO)C(=O)N[C@@H](CC(C)C)C(=O)N[C@@H](CCCNC(=N)N)C(=O)N[C@@H](CC(=O)O)C(=O)N2CCC[C@H]2C(=O)N[C@@H](CCCNC(=N)N)C(=O)N2CCC[C@H]2C(=O)N[C@@H](CC(N)=O)C(=O)N[C@@H](C)C(=O)N2CCC[C@H]2C(=O)N[C@@H](CO)C(=O)N[C@H](C(=O)N[C@@H](CO)C(=O)N[C@@H](C)C(=O)O)[C@@H](C)O)NC(=O)CNC(=O)[C@H](CC(C)C)NC(=O)CNC(=O)[C@H](CO)NC(=O)[C@H](CCSC)NC(=O)[C@H](CO)NC(=O)CNC1=O` [CDNP-H1] (HELM PEPTIDE1{G.L.S.K.G.C.F.G.L.K.L.D.R.I.G.S.M.S.G.L.G.C.H.S.L.R.D.P.R.P.N.A.P.S.T.S.A}$PEPTIDE1,PEPTIDE1,6:R3-22:R3$$$V2.0), the “sensitivity to NEP degradation” value [1] was “comparable NEP sensitivity”.

In the case of `CC[C@H](C)[C@@H]1NC(=O)[C@H](CCCNC(=N)N)NC(=O)[C@H](CC(=O)O)NC(=O)[C@H](CC(C)C)NC(=O)[C@H](CCCCN)NC(=O)[C@H](CC(C)C)NC(=O)CNC(=O)[C@H](Cc2ccccc2)NC(=O)[C@@H](NC(=O)CNC(=O)[C@H](CCCCN)NC(=O)[C@H](CO)NC(=O)[C@H](CC(C)C)NC(=O)CN)CSSC[C@@H](C(=O)N[C@@H](CCCCN)C(=O)N[C@@H](CO)C(=O)N[C@@H](CC(C)C)C(=O)N[C@@H](CCCNC(=N)N)C(=O)N[C@@H](CC(=O)O)C(=O)N2CCC[C@H]2C(=O)N[C@@H](CCCNC(=N)N)C(=O)N2CCC[C@H]2C(=O)N[C@@H](CC(N)=O)C(=O)N[C@@H](C)C(=O)N2CCC[C@H]2C(=O)N[C@@H](CO)C(=O)N[C@H](C(=O)N[C@@H](CO)C(=O)N[C@@H](C)C(=O)O)[C@@H](C)O)NC(=O)CNC(=O)[C@H](CC(C)C)NC(=O)CNC(=O)[C@H](CO)NC(=O)[C@H](CCSC)NC(=O)[C@H](CO)NC(=O)CNC1=O` [CDNP-K1] (HELM PEPTIDE1{G.L.S.K.G.C.F.G.L.K.L.D.R.I.G.S.M.S.G.L.G.C.K.S.L.R.D.P.R.P.N.A.P.S.T.S.A}$PEPTIDE1,PEPTIDE1,6:R3-22:R3$$$V2.0), the “sensitivity to NEP degradation” value [1] is reported as “slightly more sensitive to NEP than the other CDNP variants”.

For `CC[C@H](C)[C@@H]1NC(=O)[C@H](CCCNC(=N)N)NC(=O)[C@H](CC(=O)O)NC(=O)[C@H](CC(C)C)NC(=O)[C@H](CCCCN)NC(=O)[C@H](CC(C)C)NC(=O)CNC(=O)[C@H](Cc2ccccc2)NC(=O)[C@@H](NC(=O)CNC(=O)[C@H](CCCCN)NC(=O)[C@H](CO)NC(=O)[C@H](CC(C)C)NC(=O)CN)CSSC[C@@H](C(=O)N[C@@H](CC(N)=O)C(=O)N[C@@H](CO)C(=O)N[C@@H](CC(C)C)C(=O)N[C@@H](CCCNC(=N)N)C(=O)N[C@@H](CC(=O)O)C(=O)N2CCC[C@H]2C(=O)N[C@@H](CCCNC(=N)N)C(=O)N2CCC[C@H]2C(=O)N[C@@H](CC(N)=O)C(=O)N[C@@H](C)C(=O)N2CCC[C@H]2C(=O)N[C@@H](CO)C(=O)N[C@H](C(=O)N[C@@H](CO)C(=O)N[C@@H](C)C(=O)O)[C@@H](C)O)NC(=O)CNC(=O)[C@H](CC(C)C)NC(=O)CNC(=O)[C@H](CO)NC(=O)[C@H](CCSC)NC(=O)[C@H](CO)NC(=O)CNC1=O` [CDNP-N1] (HELM PEPTIDE1{G.L.S.K.G.C.F.G.L.K.L.D.R.I.G.S.M.S.G.L.G.C.N.S.L.R.D.P.R.P.N.A.P.S.T.S.A}$PEPTIDE1,PEPTIDE1,6:R3-22:R3$$$V2.0), the “sensitivity to NEP degradation” value [1] was “comparable NEP sensitivity”.

In the case of “CNP-F17: CNP22 point mutant at position 17; SEQ ID NO: 119 (GLSKGCFGLKLDRIGSFSGLGC; Synthetic Construct (CNP-F17 (C15)))”, the “potency compared with CNP22” value (NPR-B [2]) is reported as “comparable potency to CNP22”.

With “CNP-L17: CNP22 point mutant at position 17; SEQ ID NO: 120 (GLSKGCFGLKLDRIGSLSGLGC; Synthetic Construct (CNP-L17 (C16)))” the “potency compared with CNP22” value (NPR-B [2]) was “comparable potency to CNP22”.

“CNP-R17: CNP22 point mutant at position 17; SEQ ID NO: 157 (GLSKGCFGLKLDRIGSRSGLGC; Synthetic Construct (CNP-R17))” was tested, and the “potency compared with CNP22” value (NPR-B [2]) was “improved potency”.

“CNP-T17: CNP22 point mutant at position 17; SEQ ID NO: 122 (GLSKGCFGLKLDRIGSTSGLGC; Synthetic Construct (CNP-T17 (C18)))” was tested, and the “potency compared with CNP22” value (NPR-B [2]) was “comparable potency to CNP22”.

“CNP-Y17: CNP22 point mutant at position 17; SEQ ID NO: 158 (GLSKGCFGLKLDRIGSYSGLGC; Synthetic Construct (CNP-Y17))” was tested, and the “potency compared with CNP22” value (NPR-B [2]) was “improved potency”.

With “Fc-CNP53-A: N-terminal Fc, Gly3 linker, CNP53 with position 48 mutated to alanine; SEQ ID NO: 518” the “efficacy relative to CNP” value (NPR-B [2]) was “comparable efficacy”, the “potency relative to CNP (times less than that of CNP)” value (“potency relative to CNP” for short) (NPR-B [2]) was 5.4 times and the “efficacy relative to CNP” value (NPR-B [3]; [4]) was “slightly better efficacy than CNP”. For the same compound, the “potency relative to CNP” value (NPR-B [3]; [4]) was “more than twice the potency as CNP”, the “efficacy relative to CNP” value (NPR-B [3]; [5]) was “comparable efficacy” and the “potency relative to CNP” value (NPR-B [3]; [5]) was 1.3 times.

In the case of “Fc-CNP53-AAA: Fc-CNP53-A with residues 30 and 31 of CNP53 mutated to alanine; SEQ ID NO: 520”, the “efficacy relative to CNP” value (NPR-B [2]) is reported as 74%, the “potency relative to CNP” value (NPR-B [2]) is reported as 14 times and the “efficacy relative to CNP” value (NPR-B [3]; [4]) is reported as “about two-thirds of CNP's efficacy”. The “potency relative to CNP” value (NPR-B [3]; [4]) was 1.5 times, the “efficacy relative to CNP” value (NPR-B [3]; [5]) was “comparable efficacy” and the “potency relative to CNP” value (NPR-B [3]; [5]) was 3.3 times.
